Data reported in patent US20240116985A1 (published 2024).
Starred links: 1 amine or outer side, 2 acyl side, 3 side chain; linkers in the order of their positions; H or OH if unused. Positions of bridges follow the written chain, without caps; N, C: chain ends. Non-standard residues stand in square brackets, D forms with d. Primed or numbered codes have the meaning given here. PyrS2″ = (S)-3-amino-1-((pent-4-en-1-yloxy)carbonyl)pyrrolidine-3-carboxylic acid (stapling residue), C=CCCCOC(=O)N1CC[C@@](N[*:1])(C(=O)[*:2])C1; PyrS3″ = (S)-3-amino-1-((hex-5-en-1-yloxy)carbonyl)pyrrolidine-3-carboxylic acid (stapling residue), C=CCCCCOC(=O)N1CC[C@@](N[*:1])(C(=O)[*:2])C1; B5(4) = 2,2-bis(4-pentenyl)glycine = 2-amino-2-(pent-4-en-1-yl)hept-6-enoic acid (stitching residue), C=CCCCC(CCCC=C)(N[*:1])C(=O)[*:2]; TfeGA = (S)-2-amino-3-((carboxymethyl)(2,2,2-trifluoroethyl)amino)propanoic acid, O=C([C@H](CN(CC(=O)[*:3])CC(F)(F)F)N[*:1])[*:2]; PyrS4 = (S)-3-amino-1-((hept-6-en-1-yloxy)carbonyl)pyrrolidine-3-carboxylic acid, C=CCCCCCOC(=O)N1CC[C@@](N[*:1])(C(=O)[*:2])C1; PyrS2 = (S)-3-amino-1-((pent-4-en-1-yloxy)carbonyl)pyrrolidine-3-carboxylic acid, C=CCCCOC(=O)N1CC[C@@](N[*:1])(C(=O)[*:2])C1; B5(22) = 2-amino-2-(pent-4-en-1-yl)hept-6-enoic acid (two alkene side chains), C=CCCCC(CCCC=C)(N[*:1])C(=O)[*:2]; B5(3) = 2,2-bis(4-pentenyl)glycine (stitching residue), C=CCCCC(CCCC=C)(N[*:1])C(=O)[*:2]; B3 = 2-allyl-2-aminopent-4-enoic acid, C=CCC(CC=C)(N[*:1])C(=O)[*:2]; 2F3MeF = Cc1cccc(C[C@H](N[*:1])C(=O)[*:2])c1F; Phe(2-CONH2) = NC(=O)c1ccccc1C[C@H](N)C(=O)O; Phe(3-Cl) = N[C@@H](Cc1cccc(Cl)c1)C(=O)O; Phe(2-Br) = N[C@@H](Cc1ccccc1Br)C(=O)O; Phe(2-CN) = N#Cc1ccccc1C[C@H](N)C(=O)O; Phe(2-Cl) = N[C@@H](Cc1ccccc1Cl)C(=O)O; Bta = N[C@@H](Cc1csc2ccccc12)C(=O)O; Lys(iPr) = CC(C)NCCCC[C@H](N)C(=O)O; αAllylPro = C=CC[C@@]1(C(=O)O)CCCN1; tBuAla = CC(C)(C)C[C@H](N)C(=O)O; 3Thi = N[C@@H](Cc1ccsc1)C(=O)O; Cha = N[C@@H](CC1CCCCC1)C(=O)O; S8 = C=CCCCCCC[C@](C)(N)C(=O)O; hSer = N[C@@H](CCO)C(=O)O

T1: B-cat-Halo (beta-catenin HaloTag fusion expressed in HEK293 cells) (UniProt P35222 1-781)
T1 sequence (looked up): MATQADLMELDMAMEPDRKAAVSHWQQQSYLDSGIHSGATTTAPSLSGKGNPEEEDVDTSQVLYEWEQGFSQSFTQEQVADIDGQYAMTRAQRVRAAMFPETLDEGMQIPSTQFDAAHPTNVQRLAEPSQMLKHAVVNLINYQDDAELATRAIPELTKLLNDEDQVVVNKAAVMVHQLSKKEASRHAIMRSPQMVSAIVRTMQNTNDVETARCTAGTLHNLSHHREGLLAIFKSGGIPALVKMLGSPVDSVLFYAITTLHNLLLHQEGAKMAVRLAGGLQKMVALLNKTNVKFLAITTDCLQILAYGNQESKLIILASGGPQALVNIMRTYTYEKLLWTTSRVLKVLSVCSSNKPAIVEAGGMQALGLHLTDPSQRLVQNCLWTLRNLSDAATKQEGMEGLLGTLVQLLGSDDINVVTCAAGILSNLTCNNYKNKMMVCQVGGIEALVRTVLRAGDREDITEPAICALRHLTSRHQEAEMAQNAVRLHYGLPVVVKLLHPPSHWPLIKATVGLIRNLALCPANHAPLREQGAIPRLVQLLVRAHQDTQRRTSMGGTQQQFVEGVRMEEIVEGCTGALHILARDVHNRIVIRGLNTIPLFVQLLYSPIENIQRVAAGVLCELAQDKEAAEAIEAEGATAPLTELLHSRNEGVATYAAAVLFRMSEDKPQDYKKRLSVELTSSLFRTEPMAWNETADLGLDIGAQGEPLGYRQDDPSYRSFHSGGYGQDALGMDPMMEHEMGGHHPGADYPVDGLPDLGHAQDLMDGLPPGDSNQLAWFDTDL

T2: B-cat-Halo (beta-catenin HaloTag NanoBRET construct expressed in HEK293 cells) (UniProt P35222 1-781)
T2 sequence (looked up): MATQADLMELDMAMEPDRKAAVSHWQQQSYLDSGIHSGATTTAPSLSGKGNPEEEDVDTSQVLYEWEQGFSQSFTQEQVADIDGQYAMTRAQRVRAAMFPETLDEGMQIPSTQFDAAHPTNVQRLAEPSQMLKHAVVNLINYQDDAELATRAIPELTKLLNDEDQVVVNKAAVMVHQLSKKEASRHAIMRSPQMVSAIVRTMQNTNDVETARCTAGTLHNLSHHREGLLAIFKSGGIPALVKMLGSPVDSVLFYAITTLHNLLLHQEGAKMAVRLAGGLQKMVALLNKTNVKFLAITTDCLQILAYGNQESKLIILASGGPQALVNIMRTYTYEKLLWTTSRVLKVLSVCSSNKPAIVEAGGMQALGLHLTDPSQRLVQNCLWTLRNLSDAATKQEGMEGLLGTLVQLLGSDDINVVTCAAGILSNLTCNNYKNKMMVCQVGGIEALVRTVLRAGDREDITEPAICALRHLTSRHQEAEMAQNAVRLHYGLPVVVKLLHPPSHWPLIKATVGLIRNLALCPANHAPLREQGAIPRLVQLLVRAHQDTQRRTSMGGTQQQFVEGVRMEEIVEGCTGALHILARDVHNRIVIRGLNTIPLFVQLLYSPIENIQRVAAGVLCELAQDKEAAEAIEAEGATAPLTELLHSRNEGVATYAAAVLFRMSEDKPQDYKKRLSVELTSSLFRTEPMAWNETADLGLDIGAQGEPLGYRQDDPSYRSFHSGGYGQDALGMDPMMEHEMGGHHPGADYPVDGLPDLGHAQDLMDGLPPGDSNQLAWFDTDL

T3: B-cat-Halo (beta-catenin HaloTag NanoBRET construct expressed in HEK293 cells) (UniProt P35222 1-781, HaloTag NanoBRET 618 Ligand bound to the HaloTag)
T3 sequence (looked up): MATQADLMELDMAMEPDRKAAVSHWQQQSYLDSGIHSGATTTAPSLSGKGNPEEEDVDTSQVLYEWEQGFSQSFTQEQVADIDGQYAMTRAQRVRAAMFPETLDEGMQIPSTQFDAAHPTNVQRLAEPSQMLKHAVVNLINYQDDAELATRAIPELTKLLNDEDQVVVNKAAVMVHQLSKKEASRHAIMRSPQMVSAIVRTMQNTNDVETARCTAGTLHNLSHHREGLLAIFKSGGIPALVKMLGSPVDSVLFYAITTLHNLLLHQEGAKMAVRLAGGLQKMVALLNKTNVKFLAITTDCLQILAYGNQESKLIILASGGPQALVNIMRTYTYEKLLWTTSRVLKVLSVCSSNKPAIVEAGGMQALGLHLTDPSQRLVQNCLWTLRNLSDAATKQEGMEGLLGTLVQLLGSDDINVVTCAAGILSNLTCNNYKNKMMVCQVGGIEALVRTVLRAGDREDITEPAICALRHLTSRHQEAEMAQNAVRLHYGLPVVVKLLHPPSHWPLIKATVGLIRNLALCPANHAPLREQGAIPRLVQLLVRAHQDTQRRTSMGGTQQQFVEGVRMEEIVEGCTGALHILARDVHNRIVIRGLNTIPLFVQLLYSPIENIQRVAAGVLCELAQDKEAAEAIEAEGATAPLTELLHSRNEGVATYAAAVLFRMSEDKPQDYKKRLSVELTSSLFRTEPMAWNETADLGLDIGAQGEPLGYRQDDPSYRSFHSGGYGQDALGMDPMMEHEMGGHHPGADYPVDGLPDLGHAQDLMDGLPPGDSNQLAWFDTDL


target: T1, B-cat-Halo (beta-catenin HaloTag fusion …); experiment: cell-based or functional assay

Binder | NanoBRET Abs IC50
Ac-[αAllylPro]D[tBuAla][B5(3)]DDAAFL[PyrS2″][Phe(2-CN)][Bta]Q-NH2 (staple 1-4, 4-11) [Ac-PL3-Asp-Npg-B5-Asp-Asp-Ala-Ala-Phe-Leu-PyrS2-2CNF-BztA-Gln-NH2] | 10 µM
Ac-[αAllylPro]N[tBuAla][B5(3)]DDAAFN[PyrS2″][3Thi][Bta]Q-NH2 (staple 1-4, 4-11) [Ac-PL3-Asn-Npg-B5-Asp-Asp-Ala-Ala-Phe-Asn-PyrS2-3Thi-BztA-Gln-NH2] | 17.3 µM
Ac-[αAllylPro]D[tBuAla][B5(3)]NDAAFL[PyrS2″][3Thi][Bta]Q-NH2 (staple 1-4, 4-11) [Ac-PL3-Asp-Npg-B5-Asn-Asp-Ala-Ala-Phe-Leu-PyrS2-3Thi-BztA-Gln-NH2] | 7.5 µM

target: T2, B-cat-Halo (beta-catenin HaloTag …); experiment: cell-based or functional assay

Binder | NanoBRET Abs IC50
Ac-[αAllylPro]D[tBuAla][B3]DDAAFL[PyrS4][3Thi][Bta]Q-NH2 (staple 1-4, 4-11; also: earlier eluting HPLC peak (staple isomer composition)) [I-2158] | > 20 µM
Ac-[αAllylPro]D[tBuAla][B3]DDAAFL[PyrS4][3Thi][Bta]Q-NH2 (staple 1-4, 4-11; also: later eluting HPLC peak (staple isomer composition)) [I-2159] | > 20 µM
Ac-[αAllylPro]N[Cha][B5(4)]DQ[Lys(iPr)]AFN[PyrS2″][Phe(2-CONH2)][Bta][hSer]-NH2 (staple 1-4, 4-11) [I-2168] | > 20 µM
Ac-[αAllylPro]N[Cha][B5(4)]DQ[Lys(iPr)]AFN[PyrS2″]F[Bta][hSer]-NH2 (staple 1-4, 4-11) [I-2167] | > 20 µM
Ac-[αAllylPro]D[tBuAla][B3]DDAAFL[PyrS4][3Thi][Bta]Q-NH2 (staple 1-4, 4-11; also: olefin in each staple reduced to -CH2-CH2-) [I-2162] | > 20 µM
Ac-[αAllylPro]D[tBuAla][B3]DDAAFL[PyrS3″][3Thi][Bta]Q-NH2 (staple 1-4, 4-11; also: olefin in each staple reduced to -CH2-CH2-) [I-2161] | > 20 µM

target: T3, B-cat-Halo (beta-catenin HaloTag …); experiment: cell-based or functional assay

Binder | NanoBRET Abs IC50
Ac-[αAllylPro]D[tBuAla][B5(22)]D[TfeGA]AAFN[S8][2F3MeF][Bta]Q-NH2 (staple 1-4, 4-11) [I-934] | 19.2 µM
Ac-[αAllylPro]D[tBuAla][B5(22)]DDAAFN[PyrS2][3Thi][Bta]QK(PropynPEG2)-NH2 (staple 1-4, 4-11) [I-936] | 22.2 µM
Ac-[αAllylPro]D[tBuAla][B5(3)]D[TfeGA]AAFT[S8][Phe(2-Cl)][Bta]Q-NH2 (staple 1-4, 4-11) [I-930] | 13.5 µM
Ac-[αAllylPro]D[tBuAla][B5(22)]DDAAFN[PyrS2][3Thi][Bta]QK(PropynPEG1)-NH2 (staple 1-4, 4-11) [I-935] | 33.1 µM
Ac-[αAllylPro]D[tBuAla][B5(22)]DDAAFN[PyrS2][3Thi][Bta]QK-NH2 (staple 1-4, 4-11) [I-939] | 25.1 µM
Ac-[αAllylPro]D[tBuAla][B5(22)]D[TfeGA]AAFN[S8][Phe(2-Br)][Bta]Q-NH2 (staple 1-4, 4-11) [I-932] | 11.4 µM
Ac-[αAllylPro]D[tBuAla][B5(22)]D[TfeGA]AAFN[S8][Phe(3-Cl)][Bta]Q-NH2 (staple 1-4, 4-11) [I-933] | 22.2 µM
